Reference: PMC4855633

Target: fibrous bovine collagen I (bovine) (UniProt P02453)
Sequence of UniProt P02453 (P02453 162-1217, chain 1 of 2): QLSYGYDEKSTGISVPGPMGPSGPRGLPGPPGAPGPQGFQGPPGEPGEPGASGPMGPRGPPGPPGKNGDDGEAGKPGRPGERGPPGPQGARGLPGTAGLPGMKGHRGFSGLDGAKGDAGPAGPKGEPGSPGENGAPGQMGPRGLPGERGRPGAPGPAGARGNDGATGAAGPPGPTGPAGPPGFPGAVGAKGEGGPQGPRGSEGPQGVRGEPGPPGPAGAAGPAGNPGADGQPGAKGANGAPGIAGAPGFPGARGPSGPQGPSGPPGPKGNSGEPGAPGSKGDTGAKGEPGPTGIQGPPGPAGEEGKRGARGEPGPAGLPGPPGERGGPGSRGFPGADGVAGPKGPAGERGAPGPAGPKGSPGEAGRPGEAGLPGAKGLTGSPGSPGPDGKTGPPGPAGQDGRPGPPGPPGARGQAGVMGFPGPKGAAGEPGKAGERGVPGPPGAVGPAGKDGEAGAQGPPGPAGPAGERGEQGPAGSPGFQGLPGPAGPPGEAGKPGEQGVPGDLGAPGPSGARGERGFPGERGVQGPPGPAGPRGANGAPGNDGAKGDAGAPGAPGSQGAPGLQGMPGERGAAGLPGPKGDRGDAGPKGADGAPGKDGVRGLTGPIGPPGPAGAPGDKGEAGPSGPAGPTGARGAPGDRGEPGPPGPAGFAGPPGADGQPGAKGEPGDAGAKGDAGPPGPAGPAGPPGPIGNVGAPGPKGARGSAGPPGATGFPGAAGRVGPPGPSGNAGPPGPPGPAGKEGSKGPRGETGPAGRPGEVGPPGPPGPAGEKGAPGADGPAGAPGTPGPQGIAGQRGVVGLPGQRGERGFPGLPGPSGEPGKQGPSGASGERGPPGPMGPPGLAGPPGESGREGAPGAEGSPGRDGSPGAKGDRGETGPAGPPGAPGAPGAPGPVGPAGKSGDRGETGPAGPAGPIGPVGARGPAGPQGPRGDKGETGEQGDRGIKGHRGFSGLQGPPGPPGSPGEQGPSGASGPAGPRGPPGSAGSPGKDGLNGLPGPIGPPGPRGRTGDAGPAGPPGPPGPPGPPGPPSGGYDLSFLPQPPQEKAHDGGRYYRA
Sequence of UniProt P02453 (P02465 80-1117, chain 2 of 2, further chain): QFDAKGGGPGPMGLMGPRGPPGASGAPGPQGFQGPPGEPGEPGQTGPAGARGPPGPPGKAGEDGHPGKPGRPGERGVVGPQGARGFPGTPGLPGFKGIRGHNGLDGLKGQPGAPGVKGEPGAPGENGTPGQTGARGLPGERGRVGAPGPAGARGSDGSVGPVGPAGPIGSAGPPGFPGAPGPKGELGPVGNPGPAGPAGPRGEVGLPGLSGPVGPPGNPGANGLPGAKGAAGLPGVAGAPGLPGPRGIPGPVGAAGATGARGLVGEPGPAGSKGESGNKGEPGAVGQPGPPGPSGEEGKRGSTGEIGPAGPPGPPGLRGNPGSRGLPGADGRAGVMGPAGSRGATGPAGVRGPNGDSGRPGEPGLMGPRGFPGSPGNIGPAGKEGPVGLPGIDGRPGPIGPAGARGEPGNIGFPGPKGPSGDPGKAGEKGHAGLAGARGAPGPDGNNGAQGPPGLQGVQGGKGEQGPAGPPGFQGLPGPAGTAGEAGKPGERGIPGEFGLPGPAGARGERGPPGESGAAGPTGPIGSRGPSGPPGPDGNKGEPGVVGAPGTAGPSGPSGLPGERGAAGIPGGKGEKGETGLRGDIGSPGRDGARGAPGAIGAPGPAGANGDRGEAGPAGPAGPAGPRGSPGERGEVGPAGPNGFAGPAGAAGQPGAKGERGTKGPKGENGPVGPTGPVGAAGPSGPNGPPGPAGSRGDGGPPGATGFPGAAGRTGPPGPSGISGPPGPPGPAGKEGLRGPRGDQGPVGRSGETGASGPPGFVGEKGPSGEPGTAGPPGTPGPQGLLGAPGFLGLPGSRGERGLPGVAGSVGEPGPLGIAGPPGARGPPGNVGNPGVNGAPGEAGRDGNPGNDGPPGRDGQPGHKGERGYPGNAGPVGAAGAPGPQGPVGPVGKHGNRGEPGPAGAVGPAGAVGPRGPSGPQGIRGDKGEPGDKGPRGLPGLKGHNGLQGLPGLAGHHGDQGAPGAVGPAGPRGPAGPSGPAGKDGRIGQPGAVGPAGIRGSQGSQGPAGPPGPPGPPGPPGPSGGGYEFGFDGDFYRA

glycoprotein VI (from UniProt Q9HCN6 21-339) (receptor)
reduction of static adhesion of washed human platelets to fibrous collagen I by anti-GPVI scFv in the presence of EDTA, relative to EDTA alone: 40%
reduction of static adhesion of washed human platelets to fibrous collagen I by anti-GPVI scFv in the presence of EDTA, relative to control: 70%
